Test results taken from US10196657B2, “Methods of producing 7-carbon chemicals via methyl-ester shielded carbon chain elongation” (INVISTA North America S.á r.l., priority 2012, dated 2019).

Experiment: Thioesterase enzyme activity assay, pimeloyl-CoA to pimelate (release of CoA, Ellman's reagent)
Assay type: biochemical
Settings: 667 μM pimeloyl-CoA, 0.8 μM enzyme, pH 7.4, 37° C., 20 min; relative to empty vector control; FIG. 8
Method: A sequence encoding an N-terminal His tag was added to the tesB gene from Escherichia coli that encodes a thioesterase (SEQ ID NO 1, see FIG. 7A), such that an N-terminal HIS tagged thioesterase could be produced. The modified tesB gene was cloned into a pET15b expression vector under control of the T7 promoter. The expression vector was transformed into a BL21[DE3] E. coli host. The resulting recombinant E. coli strain was cultivated at 37° C. in a 500 mL shake flask culture containing 50 mL Luria Broth (LB) media and antibiotic selection pressure, with shaking at 230 rpm. The culture was induced overnight at 17° C. using 0.5 mM IPTG.
The pellet from the induced shake flask culture was harvested via centrifugation. The pellet was resuspended and lysed in Y-Per™ solution (ThermoScientific, Rockford, Ill.). The cell debris was separated from the supernatant via centrifugation. […]
The enzyme activity assay was performed in triplicate in a buffer composed of 50 mM phosphate buffer (pH=7.4), 0.1 mM Ellman's reagent, and 667 μM of pimeloyl-CoA (as substrate). […] The release of Coenzyme A was monitored by absorbance at 412 nm. The absorbance associated with the substrate only control, which contained boiled enzyme, was subtracted from the active enzyme assay absorbance and compared to the empty vector control.

acceptance of pimeloyl-CoA as substrate (release of Coenzyme A, absorbance at 412 nm): accepted pimeloyl-CoA as substrate
B1: gene product of tesB: Escherichia coli thioesterase encoded by tesB, GenBank Accession No. AAA24665.1 (protein, listed as Escherichia coli)
chain: MSQALKNLLTLLNLEKIEEGLFRGQSEDLGLRQVFGGQVVGQALYAAKETVPEERLVHSFHSYFLRPGDSKKPIIYDVETLRDGNSFSARRVAAIQNGKPIFYMTASFQAPEAGFEHQKTMPSAPAPDGLPSETQIAQSLAHLLPPVLKDKFICDRPLEVRPVEFHNPLKGHVAEPHRQVWIRANGSVPDDLRVHQYLLGYASDLNFLPVALQPHGIGFLEPGIQIATIDHSMWFHRPFNLNEWLLYSVESTSASSARGFVRGEFYTQDGVLVASTVQEGVMRNHN
